Measured values published in patent US20130011427A1 (priority 2009, published 2013).

Each substance was assayed against HLA-DR2 (chimeric HLA-DRA1*0101/DRB1*1501 with I-E domains) (human; murine) (UniProt Q8BHN5) (assay: cell-based or functional assay).
Chain of UniProt Q8BHN5 (Q8BHN5 whole entry, stated change not applied): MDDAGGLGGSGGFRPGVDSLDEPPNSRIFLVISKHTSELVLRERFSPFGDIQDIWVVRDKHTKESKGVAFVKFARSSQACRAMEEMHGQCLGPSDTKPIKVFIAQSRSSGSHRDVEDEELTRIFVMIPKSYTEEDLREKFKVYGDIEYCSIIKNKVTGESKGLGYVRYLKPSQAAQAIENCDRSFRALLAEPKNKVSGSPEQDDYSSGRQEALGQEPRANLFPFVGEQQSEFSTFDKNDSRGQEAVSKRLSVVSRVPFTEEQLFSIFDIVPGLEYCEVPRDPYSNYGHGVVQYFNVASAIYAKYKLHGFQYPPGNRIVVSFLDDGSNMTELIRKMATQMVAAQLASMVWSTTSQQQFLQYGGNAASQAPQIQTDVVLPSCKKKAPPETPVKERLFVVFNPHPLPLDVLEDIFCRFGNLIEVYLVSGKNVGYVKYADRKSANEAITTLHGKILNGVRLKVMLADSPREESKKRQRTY

IFN-γ ELISpot (SFC/10^6)	Substance
134 SFC/10^6	WNV NS1 161-178 peptide
563 SFC/10^6	WNV NS2a 6-23 peptide
516 SFC/10^6	WNV NS2a 52-66 peptide
289 SFC/10^6	WNV NS2a 80-97 peptide
384 SFC/10^6	WNV NS2a 128-145 peptide
98 SFC/10^6	WNV NS2a 136-154 peptide
74 SFC/10^6	WNV NS2a 211-229 peptide
47 SFC/10^6	WNV NS2b 39-56 peptide
59 SFC/10^6	WNV NS2b 59-75 peptide
155 SFC/10^6	WNV NS3 22-38 peptide
59 SFC/10^6	WNV NS3 176-192 peptide
52 SFC/10^6	WNV NS3 199-216 peptide
123 SFC/10^6	WNV NS3 460-475 peptide
42 SFC/10^6	WNV NS3 588-605 peptide
89 SFC/10^6	WNV NS4b 30-47 peptide
62 SFC/10^6	WNV NS4b 233-250 peptide
168 SFC/10^6	WNV NS5 212-229 peptide
101 SFC/10^6	WNV prM 114-130 peptide
84 SFC/10^6	WNV prM 144-161 peptide

Substance	IFN-γ ELISpot (SFC/10^6)
WNV E 450-467 peptide	261 SFC/10^6
WNV E 458-474 peptide	51 SFC/10^6
WNV NS3 161-177 peptide	72 SFC/10^6
WNV NS3 183-200 peptide	55 SFC/10^6
WNV NS3 206-223 peptide	323 SFC/10^6
WNV NS3 214-230 peptide	146 SFC/10^6
WNV NS3 249-266 peptide	139 SFC/10^6
WNV NS3 265-282 peptide	169 SFC/10^6
WNV NS3 455-469 peptide	200 SFC/10^6
WNV NS3 515-532 peptide	95 SFC/10^6
WNV NS3 523-539 peptide	160 SFC/10^6
WNV NS5 181-198 peptide	122 SFC/10^6
WNV NS5 598-615 peptide	252 SFC/10^6

The substances below were run against HLA-A2.1 (HHD monochain) (human; murine) (assay: cell-based or functional assay).

Substance	IFN-γ ELISpot (SFC/10^6)
WNV E 68-85 peptide	372 SFC/10^6
WNV E 450-467 peptide	205 SFC/10^6
WNV NS1 228-245 peptide	84 SFC/10^6
WNV NS1 236-251 peptide	78 SFC/10^6
WNV NS2a 160-177 peptide	63 SFC/10^6
WNV NS2b 115-131 peptide	108 SFC/10^6
WNV NS3 70-87 peptide	174 SFC/10^6
WNV NS3 78-95 peptide	150 SFC/10^6
WNV NS3 85-100 peptide	72 SFC/10^6
WNV NS3 91-107 peptide	156 SFC/10^6
WNV NS3 98-115 peptide	145 SFC/10^6
WNV NS3 138-155 peptide	159 SFC/10^6
WNV NS3 146-162 peptide	58 SFC/10^6
WNV NS3 161-177 peptide	56 SFC/10^6
WNV NS3 183-200 peptide	62 SFC/10^6
WNV NS3 206-223 peptide	108 SFC/10^6

Substance	IFN-γ ELISpot (SFC/10^6)
WNV NS3 221-237 peptide	26 SFC/10^6
WNV NS3 241-258 peptide	127 SFC/10^6
WNV NS3 249-266 peptide	79 SFC/10^6
WNV NS3 265-282 peptide	150 SFC/10^6
WNV NS3 304-321 peptide	94 SFC/10^6
WNV NS3 317-333 peptide	151 SFC/10^6
WNV NS3 324-340 peptide	117 SFC/10^6
WNV NS3 336-352 peptide	167 SFC/10^6
WNV NS3 343-360 peptide	55 SFC/10^6
WNV NS3 359-376 peptide	75 SFC/10^6
WNV NS3 413-430 peptide	130 SFC/10^6
WNV NS3 515-532 peptide	140 SFC/10^6
WNV NS3 523-539 peptide	57 SFC/10^6
WNV NS3 530-547 peptide	127 SFC/10^6
WNV NS5 448-463 peptide	26 SFC/10^6

What follows are substances tested on HLA-DR2 (DRB1*1501) Tg mice, CD8-depleted splenocytes (assay: not given).
Format: cell-based, mouse

Substance	T cell activation of HLA transgenic mice (SFC/10^6) IFN-γ ELISpot, DR2
AAQRRGRIGRNPSQV [NS3 455-469]	200 ± 27 SFC/10^6
DISWESDAEITGSSERV [NS2b 59-75]	59 ± 12 SFC/10^6
EIPDVLNSLAVAWMILRA [NS2a 128-145]	384 ± 125 SFC/10^6
EKVYTMDGEYRLRGEERK [NS3 515-532]	95 ± 27 SFC/10^6
ERKILRPRWIDARVYSDH [NS3 588-605]	42 ± 4 SFC/10^6
EYRLRGEERKNFLELLR [NS3 523-539]	160 ± 48 SFC/10^6
GEFLLDLRPATAWSLYAV [NS4b 30-47]	89 ± 21 SFC/10^6
GKTRRILPQIIKEAINRR [NS3 199-216]	52 ± 6 SFC/10^6
GLFNPMILAAGLIACDPNR [NS2a 211-229]	74 ± 23 SFC/10^6
GLTSTRMFLKVRESNTTE [NS1 161-178]	134 ± 8 SFC/10^6
GRIGRNPSQVGDEYCY [NS3 460-475]	123 ± 4 SFC/10^6
GWLSCLSITWTLIKNMEK [NS4b 233-250]	62 ± 6 SFC/10^6
IDPFQLGLLVVFLATQEV [NS2a 6-23]	563 ± 41 SFC/10^6
LAVAWMILRAITFTTTSNV [NS2a 136-154]	98 ± 22 SFC/10^6
MATFKIQPVFMVASFLKA [NS2a 80-97]	289 ± 83 SFC/10^6
MFAAFVISGKSTDMWIER [NS2b 39-56]	47 ± 18 SFC/10^6
MLRKKQITVLDLHPGAGK [NS3 183-200]	55 ± 2 SFC/10^6
NRRLRTAVLAPTRVVAA [NS3 214-230]	146 ± 29 SFC/10^6
PAGFEPEMLRKKQITVL [NS3 176-192]	59 ± 8 SFC/10^6
PQIIKEAINRRLRTAVLA [NS3 206-223]	323 ± 21 SFC/10^6
REDQRGSGQVVTYALNTF [NS5 598-615]	252 ± 41 SFC/10^6
SRNSTHEMYWVSRASGNV [NS5 212-229]	168 ± 13 SFC/10^6
STKATRYLVKTESWILR [prM 114-130]	101 ± 33 SFC/10^6
SWITQGLLGALLLWMGI [E 458-474]	51 ± 4 SFC/10^6
TDVLRYVILVGAAFA [NS2a 52-66]	516 ± 9 SFC/10^6
TLTHRLMSPHRVPNYNLF [NS3 265-282]	169 ± 16 SFC/10^6
VKVLCPYMPKVIEKMELL [NS5 181-198]	122 ± 40 SFC/10^6
VYRIMTRGLLGSYQAGA [NS3 22-38]	155 ± 22 SFC/10^6
YISAIVQGERMDEPIPA [NS3 161-177]	72 ± 15 SFC/10^6

What follows are substances tested on HLA-A2.1 (HLA-A*0201) Tg mice, CD4-depleted splenocytes (assay: not given).
Format: cell-based, mouse

Substance	T cell activation of HLA transgenic mice (SFC/10^6) IFN-γ ELISpot, A2
ATPPGTSDPFPESNSPI [NS3 317-333]	151 ± 18 SFC/10^6
CYGGPWKLQHKWNGQDEV [NS3 78-95]	150 ± 17 SFC/10^6
DPFPESNSPISDLQTEI [NS3 324-340]	117 ± 20 SFC/10^6
ECHTCIYNMMGKREKK [NS5 448-463]	26 ± 7 SFC/10^6
EKVYTMDGEYRLRGEERK [NS3 515-532]	140 ± 24 SFC/10^6
EMGANFKASRVIDSRKSV [NS3 413-430]	130 ± 15 SFC/10^6
ERKNFLELLRTADLPVWL [NS3 530-547]	127 ± 10 SFC/10^6
EYRLRGEERKNFLELLR [NS3 523-539]	57 ± 11 SFC/10^6
GQDEVQMIVVEPGKNVK [NS3 91-107]	156 ± 11 SFC/10^6
GSVKEDRLCYGGPWKLQH [NS3 70-87]	174 ± 13 SFC/10^6
IRYQTSAVPREHNGNEIV [NS3 241-258]	127 ± 18 SFC/10^6
IVVEPGKNVKNVQTKPGV [NS3 98-115]	145 ± 25 SFC/10^6
KVELGEAAAIFMTATPPG [NS3 304-321]	94 ± 22 SFC/10^6
LQHKWNGQDEVQMIVV [NS3 85-100]	72 ± 9 SFC/10^6
LQTEIPDRAWNSGYEWI [NS3 336-352]	167 ± 35 SFC/10^6
LSTKAACPTMGEAHNDKR [E 68-85]	372 ± 242 SFC/10^6
MLRKKQITVLDLHPGAGK [NS3 183-200]	62 ± 24 SFC/10^6
PIVDKNGDVIGLYGNGVI [NS3 138-155]	159 ± 10 SFC/10^6
PQIIKEAINRRLRTAVLA [NS3 206-223]	108 ± 22 SFC/10^6
RAWNSGYEWITEYTGKTV [NS3 343-360]	55 ± 21 SFC/10^6
THTLWGDGILESDLIIPV [NS1 228-245]	84 ± 47 SFC/10^6
TLTHRLMSPHRVPNYNLF [NS3 265-282]	150 ± 30 SFC/10^6
TVWFVPSVKMGNEIALCL [NS3 359-376]	75 ± 44 SFC/10^6
VIGLYGNGVIMPNGSYI [NS3 146-162]	58 ± 38 SFC/10^6
VLAPTRVVAAEMAEALR [NS3 221-237]	26 ± 4 SFC/10^6
YISAIVQGERMDEPIPA [NS3 161-177]	56 ± 28 SFC/10^6
